Article PMC3844517

What was measured:
Experiment in all cases: co-IP
[1] = molecular target: Plk4-EGFP A26 (Drosophila) (UniProt O97143)
[2] = molecular target: Plk4-EGFP A18 (Drosophila) (UniProt O97143)
[3] = molecular target: Plk4-EGFP A20 (Drosophila) (UniProt O97143)
[4] = molecular target: Plk4-EGFP A16 (Drosophila) (UniProt O97143)
[5] = molecular target: Plk4-EGFP A17 (Drosophila) (UniProt O97143)
[6] = molecular target: Plk4-EGFP A15 (Drosophila) (UniProt O97143)
[7] = molecular target: Plk4-EGFP A19 (Drosophila) (UniProt O97143)

Slimb (F-box protein of the SCF ubiquitin ligase) (natural protein)
2 fold: further fold decrease of Slimb binding (beyond A14) [2] | further fold decrease of Slimb binding (beyond A14) [3] | further fold decrease of Slimb binding (beyond A14) [4] | further fold decrease of Slimb binding (beyond A14) [5] | further fold decrease of Slimb binding (beyond A14) [6] | further fold decrease of Slimb binding (beyond A14) [7]
5 fold: fold reduction in the amount of associated Slimb [1]
